Results published in article PMC1368978, “Crystal structure of a DNA polymerase sliding clamp from a Gram-positive bacterium” (BMC Structural Biology, 2006).

Biological target: the molecule itself
Assay: crystal structure; hanging drop, 20 mg/mL protein in Buffer A + 100 mM NaCl; 30% PEG 2000 MME, 100 mM sodium acetate pH 4.5, 200 mM ammonium sulfate, 20°C; space group P2(1), one dimer in the asymmetric unit; refined to 2.1 Å

B1: β subunit of the DNA polymerase III holoenzyme of Streptococcus pyogenes (natural protein)
chain: MIQFSINRTLFIHALNTTKRAISTKNAIPILSSIKIEVTSTGVTLTGSNGQISIENTIPVSNENAGLLITSPGAILLEASFFINIISSLPDISINVKEIEQHQVVLTSGKSEITLKGKDVDQYPRLQEVSTENPLILKTKLLKSIIAETAFAASLQESRPILTGVHIVLSNHKDFKAVATDSHRMSQRLITLDNTSADLMVVLPSKSLREFSAVFTDDIETVEVFFSPSQILFRSEHISFYTRLLEGNYPDTDRLLMTEFETEVVFNTQSLRHAMERAFLISNATQNGTVKLEITQNHISAHVNSPEVGKVNEDLDIVSQSGSDLTISFNPTYLIESLKAIKSETVKIHFLSPVRPFTLTPGDEEESFIQLITPVRTN
notes: β subunit (sliding clamp) of DNA polymerase III, Streptococcus pyogenes; residues up to Thr 377 are named in the model; A selenomethionine-derivatized form was also made and crystallized for phasing (MAD); also called S. pyogenes β subunit; S. pyogenes β clamp; source: E. coli BLR DE3 (plasmid pETSpdnaN), purified (ammonium sulfate cut, Fast Flow Q, EAH-Sepharose 4B, Mono Q)
stoichiometry N: 2
